The results in this text go back to patent US20240342199.

The target of data set [1] is Recombinant CypD Ser31/Ser123→Ala double mutant, P30405.
Data set [2] deals with Recombinant CypD Ser31→Ala mutant, P30405.
The target in data set [3] is Recombinant GST-CypD (wild type), P30405.
For data set [4], the target named is Recombinant CypD Ser123→Ala mutant, P30405.
Chain of Recombinant CypD Ser123→Ala mutant, P30405 (P30405 whole entry, looked up, change not shown): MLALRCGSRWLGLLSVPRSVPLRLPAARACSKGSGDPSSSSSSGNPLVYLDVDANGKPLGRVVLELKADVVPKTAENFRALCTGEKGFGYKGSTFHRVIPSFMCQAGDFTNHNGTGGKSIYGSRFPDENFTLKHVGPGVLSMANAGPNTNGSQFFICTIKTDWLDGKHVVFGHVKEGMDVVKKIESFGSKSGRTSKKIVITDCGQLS

Chain of Recombinant GST-CypD (wild type), P30405 (P30405 whole entry): as the sequence (P30405 whole entry, looked up, change not shown) above
Chain of Recombinant CypD Ser31→Ala mutant, P30405 (P30405 whole entry, looked up, change not shown): as above
Chain of Recombinant CypD Ser31/Ser123→Ala double mutant, P30405 (P30405 whole entry, looked up, change not shown): as above

B1: active Akt2 (protein)
chain: MNEVSVIKEGWLHKRGEYIKTWRPRYFLLKSDGSFIGYKERPEAPDQTLPPLNNFSVAECQLMKTERPRPNTFVIRCLQWTTVIERTFHVDSPDEREEWMRAIQMVANSLKQRAPGEDPMDYKCGSPSDSSTTEEMEVAVSKARAKVTMNDFDYLKLLGKGTFGKVILVREKATGRYYAMKILRKEVIIAKDEVAHTVTESRVLQNTRHPFLTALKYAFQTHDRLCFVMEYANGGELFFHLSRERVFTEERARFYGAEIVSALEYLHSRDVVYRDIKLENLMLDKDGHIKITDFGLCKEGISDGATMKTFCGTPEYLAPEVLEDNDYGRAVDWWGLGVVMYEMMCGRLPFYNQDHERLFELILMEEIRFPRTLSPEAKSLLAGLLKKDPKQRLGGGPSDAKEVMEHRFFLSINWQDVVQKKLLPPFKPQVTSEVDTRYFDDEFTAQSITITPPDRYDSLGLLELDQRTHFPQFSYSASIRE
Take B1: the “kinase assay with recombinant proteins, 32P-ATP, autoradiography” value in data set [1] is “abolished Akt phosphorylation of CypD”; in data set [2], “abolished Akt phosphorylation of CypD”; in data set [3], “readily phosphorylated”; in data set [4], “readily phosphorylated”.
